Reference: patent US20240343815A1
Read-outs that look alike come from different tables or passages of the source.

Experiments:
[1] = biological target: recombinant human IL4Rα-his protein (human) (UniProt P24394); assay: benchmark blocking ELISA, competitor benchmark coated (self-competition), biotinylated IL4Rα-his
[2] = biological target: human IL4Rα on HEK293T-IL4Rα-STAT6-STAT6LUC-LB2 cells (human) (UniProt P24394); assay: cell-based or functional assay
[3] = biological target: recombinant human IL4Rα-his protein (human) (UniProt P24394); assay: IL4-IL4Rα blocking ELISA, IL4Rα-his coated, biotinylated IL4
[4] = biological target: human IL4Rα expressed on the surface of 293F-IL4Rα cells (human) (UniProt P24394); assay: cell-based ligand blocking FACS, 293F-IL4Rα cells, biotinylated IL4
[5] = biological target: recombinant human IL4Rα-his protein (human) (UniProt P24394); assay: IL4-IL4Rα blocking ELISA, IL4Rα-his coated, biotinylated IL4; remark: listed apart in the source
[6] = biological target: marmoset monkey IL4Rα-his protein (marmoset monkey); assay: indirect ELISA, marmoset IL4Rα-his coated
[7] = biological target: human IL4Rα on HEK293T-IL4Rα-STAT6-STAT6LUC-LB2 cells (human) (UniProt P24394); assay: cell-based or functional assay; remark: listed apart in the source
[8] = biological target: recombinant human IL4Rα-his protein (human) (UniProt P24394); assay: SPR Biacore, mAb captured, IL4Rα-his analyte
[9] = biological target: recombinant human IL4Rα-his protein (human) (UniProt P24394); assay: SPR Biacore, mAb captured, IL4Rα-his analyte; remark: listed apart in the source
[10] = biological target: recombinant human IL4Rα-his protein (human) (UniProt P24394); assay: SPR Biacore, mAb captured, IL4Rα-his analyte; remark: listed apart in the source
[11] = biological target: cynomolgus monkey IL4Rα-his protein (cynomolgus monkey); assay: indirect ELISA, cynomolgus IL4Rα-his coated
[12] = biological target: recombinant human IL4Rα-his protein (human) (UniProt P24394); assay: capture ELISA, mAb captured by anti-human IgG, biotinylated IL4Rα-his
[13] = biological target: human IL4Rα expressed on the surface of 293F-IL4Rα cells (human) (UniProt P24394); assay: flow cytometry on 293F-IL4Rα cells
[14] = biological target: human IL4Rα expressed on the surface of 293F-IL4Rα cells (human) (UniProt P24394); assay: flow cytometry on 293F-IL4Rα cells; remark: listed apart in the source

marmoset monkey IL4Rα-his protein (marmoset monkey), sequence (chain, as listed by the source limits assumed): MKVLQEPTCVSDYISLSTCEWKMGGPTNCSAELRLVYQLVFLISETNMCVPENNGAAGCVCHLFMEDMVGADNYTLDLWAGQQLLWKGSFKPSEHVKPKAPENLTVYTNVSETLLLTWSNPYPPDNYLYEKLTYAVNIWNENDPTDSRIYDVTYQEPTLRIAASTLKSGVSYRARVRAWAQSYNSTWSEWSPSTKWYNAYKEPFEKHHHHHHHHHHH
cynomolgus monkey IL4Rα-his protein (cynomolgus monkey), sequence (chain, as listed by the source): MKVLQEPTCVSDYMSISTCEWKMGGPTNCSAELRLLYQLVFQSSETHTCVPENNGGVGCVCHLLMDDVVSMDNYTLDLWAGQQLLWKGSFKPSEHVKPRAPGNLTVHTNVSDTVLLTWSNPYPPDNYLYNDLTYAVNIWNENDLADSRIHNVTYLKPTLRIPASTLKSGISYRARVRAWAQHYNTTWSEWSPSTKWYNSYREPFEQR

- IC50 [1]: 0.19 nM
- Inhibition of IL4-induced STAT6 phosphorylation (IC50, nM) [2]: 0.37 nM
- Inhibition of IL13-induced STAT6 phosphorylation (IC50, nM) [2]: 0.48 nM
- IC50 [3]: 2.06 nM
- IC50 [4]: 0.42 nM
- IC50 [5]: 1.74 nM
- EC50 [6]: 1.72 nM
- Inhibition of IL4-induced STAT6 phosphorylation (IC50, nM) [7]: 0.7 nM
- Inhibition of IL13-induced STAT6 phosphorylation (IC50, nM) [7]: 0.84 nM
- Kd [8]: 0.466 nM
- Dissociation (%) [9]: -2.64%
- End (RU) [9]: 70 RU
- Kd [9]: 0.188 nM
- Start (RU) [9]: 71.9 RU
- koff [9]: 6.25e-05 s⁻¹
- kon [9]: 333000 M⁻¹ s⁻¹
- Kd [10]: 0.746 nM
- EC50 [11]: 0.67 nM
- EC50 [12]: 0.05 nM
- EC50 [13]: 0.4 nM
- EC50 [14]: 0.46 nM
B1: anti-IL4Rα antibody benchmark (dupilumab) (antibody, INN chains, looked up, V domains shown)
VH: EVQLVESGGGLEQPGGSLRLSCAGSGFTFRDYAMTWVRQAPGKGLEWVSSISGSGGNTYYADSVKGRFTISRDNSKNTLYLQMNSLRAEDTAVYYCAKDRLSITIRPRYYGLDVWGQGTTVTVSS
VL: DIVMTQSPLSLPVTPGEPASISCRSSQSLLYSIGYNYLDWYLQKSGQSPQLLIYLGSNRASGVPDRFSGSGSGTDFTLKISRVEAEDVGFYYCMQALQTPYTFGQGTKLEIKR
